# From CN111423515A (BETA PHARMA INC, dated 2020)
# What was measured:
# hCD47-his = molecular target: T1, hCD47-his (human, UniProt Q08722 19-139); experiment: ELISA, hCD47-his coated
# T1 construct: Bought protein coated on the ELISA plate; also called Cat#CD7-H5227; not shown: his tag
# [1] = molecular target: T2, human CD20 on cells (CHO-K1/CD20) (human, UniProt P11836 1-297); experiment: flow cytometry on CHO-K1/CD20 cells
# T2 construct: whole, on cells; also called CHO-K1/hCD20; CHO-K1/human CD20
# T2 sequence (looked up): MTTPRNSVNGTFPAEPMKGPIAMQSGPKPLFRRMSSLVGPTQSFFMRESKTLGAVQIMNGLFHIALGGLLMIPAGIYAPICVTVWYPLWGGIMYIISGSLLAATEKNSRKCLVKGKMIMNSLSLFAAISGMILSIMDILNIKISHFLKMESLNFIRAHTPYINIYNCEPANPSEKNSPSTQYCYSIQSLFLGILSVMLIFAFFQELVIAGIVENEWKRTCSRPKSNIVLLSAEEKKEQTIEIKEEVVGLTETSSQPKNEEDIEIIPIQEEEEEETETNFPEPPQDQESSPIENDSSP
# [2] = molecular target: T3, human CD47 on cells (CHO-K1/hCD47; human red blood cells RBC) (human, UniProt Q08722 19-323); experiment: flow cytometry, RBC mixed 20:1 with Raji, 10 μg/mL
# T3 construct: whole, on cells; also called CHO-K1/human CD47; 红细胞
# T3 sequence (Q08722 19-323): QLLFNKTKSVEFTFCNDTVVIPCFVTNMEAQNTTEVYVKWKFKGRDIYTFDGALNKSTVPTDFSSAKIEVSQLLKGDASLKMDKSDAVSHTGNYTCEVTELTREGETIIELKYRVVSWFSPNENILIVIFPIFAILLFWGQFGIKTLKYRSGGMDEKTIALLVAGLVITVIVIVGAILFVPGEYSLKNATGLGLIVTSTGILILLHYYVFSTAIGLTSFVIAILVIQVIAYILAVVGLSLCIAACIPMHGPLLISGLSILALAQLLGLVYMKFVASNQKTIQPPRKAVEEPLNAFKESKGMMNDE
# T1 sequence (Q08722 19-139 limits assumed): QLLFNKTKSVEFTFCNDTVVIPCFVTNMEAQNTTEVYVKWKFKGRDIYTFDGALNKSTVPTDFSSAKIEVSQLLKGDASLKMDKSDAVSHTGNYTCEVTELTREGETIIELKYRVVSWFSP
Binder,binding result (hCD47-his),binding result [1],binding result [2]
"重组蛋白CD002 (Fc fusion, Control recombinant protein; the format is not described; not shown: not described) EEELQVIQPDKSVSVAAGESAILHCTVTSLFPVGPIQWFRGAGPARELIYNQRQGPFPRVTTVSETTKRENMDFSISISAITPADAGTYYCVKFRKGSPDTEFKSGAGTELSVRAKPS",binds,–,–
"9020-1RP-1C1 (bispecific antibody, not shown: light chain constant region of the CD20 antibody) heavy: not shown light: QIVLSQSPAILSASPGEKVTMTCRASSSVSYIHWFQQKPGSSPKPWIYATSNLASGVPVRFSGSGSGTSYSLTISRVEAEDAATYYCQQWTSNPPTFGGGTKLEIK",–,binds,binds
"9020-1RP-1C2 (bispecific antibody, linker changed; not shown: light chain constant region of the CD20 antibody) heavy: not shown light: QIVLSQSPAILSASPGEKVTMTCRASSSVSYIHWFQQKPGSSPKPWIYATSNLASGVPVRFSGSGSGTSYSLTISRVEAEDAATYYCQQWTSNPPTFGGGTKLEIK",–,binds,binds
"9020-6RP (bispecific antibody, Bispecific light chain co-transfected with the CD20 antibody heavy chain; not shown: IgG1 constant region) heavy: QVQLQQPGAELVKPGASVKMSCKASGYTFTSYNMHWVKQTPGRGLEWIGAIYPGNGDTSYNQKFKGKATLTADKSSSTAYMQLSSLTSEDSAVYYCARSTYYGGDWYFNVWGAGTTVTVSA light: not shown",–,binds,–
